Experimental findings from the supplement of paper PMC9112550, “Optimization of the antimicrobial peptide Bac7 by deep mutational scanning” (BMC Biology, 2022) are described below.
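Also: peptides expressed intracellularly from a pBAD plasmid library in pooled LB shake-flask culture, induced with 0.3% L-arabinose, DNA abundance read by NGS, three biological replicates, DESeq2 with apeglm shrinkage.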

The series deals with Escherichia coli TOP10. The series can be described thus: shrunken log2 fold change of peptide-encoding DNA abundance (4.5 h post-induction vs induction); higher = less antimicrobial activity (less host growth inhibition). The settings on record: time post-induction: 4.5 h; library: site-saturation at positions 5, 18, 19, 20.
In the case of RRIRSRPPRLPRPRPRPSGVPRP, the “shrunken log2 fold change” value is -0.0112.

Take RRIRARPPRLPRPRPRPHLDPRP: the “shrunken log2 fold change” value was found to be 0.324.

For RRIRWRPPRLPRPRPRPCETPRP, the “shrunken log2 fold change” value is -0.0636.

Consider RRIRKRPPRLPRPRPRPPPYPRP, for which the “shrunken log2 fold change” value worked out at 0.249.

Take RRIRPRPPRLPRPRPRPYGNPRP: the “shrunken log2 fold change” value is -0.79.

As to RRIRMRPPRLPRPRPRPVEDPRP, the “shrunken log2 fold change” value was determined as 0.358.

Take RRIRPRPPRLPRPRPRPYGFPRP: the “shrunken log2 fold change” value was -0.426.

Regarding RRIRLRPPRLPRPRPRPHIVPRP, the “shrunken log2 fold change” value is -0.105.

For RRIRERPPRLPRPRPRPWPWPRP, the “shrunken log2 fold change” value is -0.233.

Regarding RRIRLRPPRLPRPRPRPNMEPRP, the “shrunken log2 fold change” value was 0.116.

For RRIRSRPPRLPRPRPRPWRCPRP, the “shrunken log2 fold change” value was 0.0757.

For RRIRARPPRLPRPRPRPYQLPRP, the “shrunken log2 fold change” value is -0.215.

As for RRIRNRPPRLPRPRPRPMHRPRP, the “shrunken log2 fold change” value is -0.0926.

For the sequence RRIRCRPPRLPRPRPRPLIMPRP, the “shrunken log2 fold change” value is -0.689.

On to RRIRSRPPRLPRPRPRPKAQPRP, for which the “shrunken log2 fold change” value came to 0.103.

Consider RRIRMRPPRLPRPRPRPPCCPRP, for which the “shrunken log2 fold change” value came out at 0.928.

In the case of RRIRIRPPRLPRPRPRPRWAPRP, the “shrunken log2 fold change” value stood at 0.0908.

On to RRIRIRPPRLPRPRPRPIQWPRP, for which the “shrunken log2 fold change” value is 0.0166.

Regarding RRIRTRPPRLPRPRPRPLDMPRP, the “shrunken log2 fold change” value is -0.247.

As for RRIRDRPPRLPRPRPRPWSAPRP, the “shrunken log2 fold change” value was -0.347.

On to RRIRHRPPRLPRPRPRPMTKPRP, for which the “shrunken log2 fold change” value stood at 0.0576.

Turning to RRIRLRPPRLPRPRPRPMPPPRP, the “shrunken log2 fold change” value amounted to 0.15.

Take RRIRPRPPRLPRPRPRPDREPRP: the “shrunken log2 fold change” value was 0.0682.

For RRIRRRPPRLPRPRPRPAHQPRP, the “shrunken log2 fold change” value amounted to 0.732.

Turning to RRIRFRPPRLPRPRPRPMHSPRP, the “shrunken log2 fold change” value was -0.263.

For the sequence RRIRNRPPRLPRPRPRPDWSPRP, the “shrunken log2 fold change” value is -0.256.

For RRIRSRPPRLPRPRPRPFQMPRP, the “shrunken log2 fold change” value was determined as 0.00561.

Take RRIRMRPPRLPRPRPRPYFLPRP: the “shrunken log2 fold change” value was -0.542.

As for RRIRGRPPRLPRPRPRPQVMPRP, the “shrunken log2 fold change” value is 0.532.

Regarding RRIRQRPPRLPRPRPRPGVLPRP, the “shrunken log2 fold change” value was 0.0476.

For RRIRGRPPRLPRPRPRPVMAPRP, the “shrunken log2 fold change” value is 0.745.

With RRIRVRPPRLPRPRPRPNPNPRP, the “shrunken log2 fold change” value is -0.108.

For RRIRWRPPRLPRPRPRPERPPRP, the “shrunken log2 fold change” value came to 0.292.

On to RRIRTRPPRLPRPRPRPWPNPRP, for which the “shrunken log2 fold change” value is -0.124.

Turning to RRIRQRPPRLPRPRPRPGYIPRP, the “shrunken log2 fold change” value was -0.625.

As for RRIRARPPRLPRPRPRPDAAPRP, the “shrunken log2 fold change” value is 1.48.

Turning to RRIRLRPPRLPRPRPRPMNFPRP, the “shrunken log2 fold change” value is -0.102.

RRIRSRPPRLPRPRPRPVEGPRP: the “shrunken log2 fold change” value was -0.00141.

Take RRIRQRPPRLPRPRPRPDAQPRP: the “shrunken log2 fold change” value is -9.3e-05.

With RRIRCRPPRLPRPRPRPMMLPRP, the “shrunken log2 fold change” value was -0.117.

In the case of RRIRCRPPRLPRPRPRPDWHPRP, the “shrunken log2 fold change” value was -0.358.

On to RRIRCRPPRLPRPRPRPMKFPRP, for which the “shrunken log2 fold change” value was -0.0717.

Take RRIRLRPPRLPRPRPRPHFEPRP: the “shrunken log2 fold change” value stood at 0.118.

In the case of RRIRYRPPRLPRPRPRPCGRPRP, the “shrunken log2 fold change” value is -0.00865.

With RRIRVRPPRLPRPRPRPAATPRP, the “shrunken log2 fold change” value stood at 0.609.

Turning to RRIRDRPPRLPRPRPRPTWKPRP, the “shrunken log2 fold change” value worked out at 0.0856.

On to RRIRLRPPRLPRPRPRPAECPRP, for which the “shrunken log2 fold change” value was -0.167.

RRIRKRPPRLPRPRPRPMMFPRP: the “shrunken log2 fold change” value is -0.0431.

For the sequence RRIRDRPPRLPRPRPRPLHGPRP, the “shrunken log2 fold change” value is 0.01.

With RRIRYRPPRLPRPRPRPKPAPRP, the “shrunken log2 fold change” value was -0.0511.

As for RRIRARPPRLPRPRPRPSWCPRP, the “shrunken log2 fold change” value is -0.207.

For RRIRTRPPRLPRPRPRPFLIPRP, the “shrunken log2 fold change” value is -0.378.

As for RRIRRRPPRLPRPRPRPQWVPRP, the “shrunken log2 fold change” value was determined as 0.279.

In the case of RRIRERPPRLPRPRPRPDVIPRP, the “shrunken log2 fold change” value was -0.502.

With RRIRQRPPRLPRPRPRPPMLPRP, the “shrunken log2 fold change” value came to 0.117.

Turning to RRIRLRPPRLPRPRPRPKMWPRP, the “shrunken log2 fold change” value turned out to be 0.485.

As to RRIRSRPPRLPRPRPRPLLAPRP, the “shrunken log2 fold change” value was determined as 0.602.

Regarding RRIRQRPPRLPRPRPRPCNYPRP, the “shrunken log2 fold change” value is 0.00177.

Regarding RRIRGRPPRLPRPRPRPPCPPRP, the “shrunken log2 fold change” value amounted to 0.86.

For RRIRTRPPRLPRPRPRPRQSPRP, the “shrunken log2 fold change” value came to 0.159.

Regarding RRIRKRPPRLPRPRPRPYYRPRP, the “shrunken log2 fold change” value is -0.827.

Turning to RRIRSRPPRLPRPRPRPKICPRP, the “shrunken log2 fold change” value is -0.0675.

In the case of RRIRKRPPRLPRPRPRPVGYPRP, the “shrunken log2 fold change” value was 0.00938.

Consider RRIRTRPPRLPRPRPRPWNFPRP, for which the “shrunken log2 fold change” value is -0.0511.

As to RRIRDRPPRLPRPRPRPWTYPRP, the “shrunken log2 fold change” value is -0.834.

For the sequence RRIRERPPRLPRPRPRPWVNPRP, the “shrunken log2 fold change” value was -0.00303.

Consider RRIRVRPPRLPRPRPRPDCHPRP, for which the “shrunken log2 fold change” value is -0.296.

On to RRIRCRPPRLPRPRPRPFTMPRP, for which the “shrunken log2 fold change” value is -1.13.

On to RRIRCRPPRLPRPRPRPCHDPRP, for which the “shrunken log2 fold change” value was -0.69.

On to RRIRYRPPRLPRPRPRPELWPRP, for which the “shrunken log2 fold change” value is 0.13.

RRIRIRPPRLPRPRPRPIHVPRP: the “shrunken log2 fold change” value amounted to 0.0502.

RRIRWRPPRLPRPRPRPPQEPRP: the “shrunken log2 fold change” value came out at 0.567.

Regarding RRIRQRPPRLPRPRPRPSPKPRP, the “shrunken log2 fold change” value was -0.143.

With RRIRQRPPRLPRPRPRPKPKPRP, the “shrunken log2 fold change” value turned out to be 0.278.

RRIRCRPPRLPRPRPRPMGEPRP: the “shrunken log2 fold change” value stood at 0.0249.

For the sequence RRIRRRPPRLPRPRPRPFHLPRP, the “shrunken log2 fold change” value was -0.184.

Turning to RRIRWRPPRLPRPRPRPSYQPRP, the “shrunken log2 fold change” value is -1.04.

For RRIRLRPPRLPRPRPRPGFYPRP, the “shrunken log2 fold change” value is -0.102.

Take RRIRERPPRLPRPRPRPPNKPRP: the “shrunken log2 fold change” value is -0.243.

As for RRIRDRPPRLPRPRPRPCRNPRP, the “shrunken log2 fold change” value was -0.000921.

With RRIRGRPPRLPRPRPRPENTPRP, the “shrunken log2 fold change” value turned out to be 0.841.

Regarding RRIRNRPPRLPRPRPRPVNWPRP, the “shrunken log2 fold change” value was -0.0184.

On to RRIRLRPPRLPRPRPRPYNRPRP, for which the “shrunken log2 fold change” value was -0.113.

For the sequence RRIRGRPPRLPRPRPRPNPKPRP, the “shrunken log2 fold change” value stood at 0.391.

As for RRIRSRPPRLPRPRPRPWRYPRP, the “shrunken log2 fold change” value is -0.336.

Take RRIRPRPPRLPRPRPRPYRRPRP: the “shrunken log2 fold change” value is -0.198.

For RRIRPRPPRLPRPRPRPLEKPRP, the “shrunken log2 fold change” value amounted to 0.261.

Consider RRIRCRPPRLPRPRPRPTSEPRP, for which the “shrunken log2 fold change” value was 0.108.

With RRIRNRPPRLPRPRPRPENWPRP, the “shrunken log2 fold change” value was found to be 0.0185.

Turning to RRIRYRPPRLPRPRPRPQKDPRP, the “shrunken log2 fold change” value is -0.177.

Regarding RRIRLRPPRLPRPRPRPHFSPRP, the “shrunken log2 fold change” value was -0.189.

Take RRIRPRPPRLPRPRPRPVITPRP: the “shrunken log2 fold change” value is -0.123.

In the case of RRIRHRPPRLPRPRPRPILMPRP, the “shrunken log2 fold change” value is -0.00291.

In the case of RRIRVRPPRLPRPRPRPNKYPRP, the “shrunken log2 fold change” value is -0.668.

With RRIRTRPPRLPRPRPRPFKSPRP, the “shrunken log2 fold change” value was -0.0217.

For the sequence RRIRHRPPRLPRPRPRPPDMPRP, the “shrunken log2 fold change” value stood at 0.0267.

Consider RRIRHRPPRLPRPRPRPCWIPRP, for which the “shrunken log2 fold change” value was -0.00991.

In the case of RRIRARPPRLPRPRPRPMICPRP, the “shrunken log2 fold change” value came to 0.0985.

Regarding RRIRERPPRLPRPRPRPSQIPRP, the “shrunken log2 fold change” value worked out at 0.012.

Turning to RRIRDRPPRLPRPRPRPHAWPRP, the “shrunken log2 fold change” value amounted to 0.1.

With RRIRSRPPRLPRPRPRPVHLPRP, the “shrunken log2 fold change” value is -0.177.

Regarding RRIRWRPPRLPRPRPRPPTKPRP, the “shrunken log2 fold change” value turned out to be 4.13.

Regarding RRIRMRPPRLPRPRPRPYLYPRP, the “shrunken log2 fold change” value was -0.0828.

As for RRIRPRPPRLPRPRPRPDTFPRP, the “shrunken log2 fold change” value was -0.0596.

Consider RRIRLRPPRLPRPRPRPAPTPRP, for which the “shrunken log2 fold change” value turned out to be 0.28.

As to RRIRKRPPRLPRPRPRPYGKPRP, the “shrunken log2 fold change” value is -0.154.

As to RRIRMRPPRLPRPRPRPKQEPRP, the “shrunken log2 fold change” value was found to be 3.07.

Regarding RRIRFRPPRLPRPRPRPMTQPRP, the “shrunken log2 fold change” value is -0.421.

With RRIRARPPRLPRPRPRPKVPPRP, the “shrunken log2 fold change” value stood at 0.412.

Consider RRIRIRPPRLPRPRPRPLKSPRP, for which the “shrunken log2 fold change” value is -0.325.

On to RRIRPRPPRLPRPRPRPYRKPRP, for which the “shrunken log2 fold change” value amounted to 0.0208.

In the case of RRIRHRPPRLPRPRPRPVEYPRP, the “shrunken log2 fold change” value is -0.0122.

Consider RRIRHRPPRLPRPRPRPTFIPRP, for which the “shrunken log2 fold change” value is -0.114.

On to RRIRQRPPRLPRPRPRPRTCPRP, for which the “shrunken log2 fold change” value was -0.576.

For the sequence RRIRRRPPRLPRPRPRPNYYPRP, the “shrunken log2 fold change” value is -0.333.

As to RRIRGRPPRLPRPRPRPAYYPRP, the “shrunken log2 fold change” value is -0.0149.

With RRIRQRPPRLPRPRPRPVCFPRP, the “shrunken log2 fold change” value is -0.139.

For the sequence RRIRNRPPRLPRPRPRPYMKPRP, the “shrunken log2 fold change” value is -0.03.

With RRIRCRPPRLPRPRPRPHFLPRP, the “shrunken log2 fold change” value is -0.657.

Take RRIRKRPPRLPRPRPRPQQYPRP: the “shrunken log2 fold change” value was found to be 0.183.

Consider RRIRMRPPRLPRPRPRPPMIPRP, for which the “shrunken log2 fold change” value is -0.0431.

For the sequence RRIRMRPPRLPRPRPRPLMGPRP, the “shrunken log2 fold change” value was -0.0985.

For the sequence RRIRARPPRLPRPRPRPIRLPRP, the “shrunken log2 fold change” value was -0.0928.

Turning to RRIRSRPPRLPRPRPRPENNPRP, the “shrunken log2 fold change” value is -0.449.

For RRIRVRPPRLPRPRPRPPDMPRP, the “shrunken log2 fold change” value was -0.239.
